Values belong to the binder of their own block, whether it stands above or below them.
Tests used:
[1] = target: PSD-93-12, purified tandem PDZ domains of PSD-93 (rat, UniProt Q63622 93-282); test: competition against divalent ligand
[2] = target: T1, SAP102-12, purified tandem PDZ domains of SAP102 (rat, UniProt Q62936 145-333); test: competition against divalent ligand
T1 chain: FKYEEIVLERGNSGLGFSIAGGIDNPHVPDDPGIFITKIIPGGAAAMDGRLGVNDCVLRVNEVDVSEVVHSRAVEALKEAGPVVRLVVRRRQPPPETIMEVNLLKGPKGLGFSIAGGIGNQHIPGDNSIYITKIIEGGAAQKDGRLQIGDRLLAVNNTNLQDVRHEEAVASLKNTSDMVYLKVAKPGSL

[3] = target: SAP97-12, purified tandem PDZ domains of SAP97 (rat, UniProt Q62696 220-408); test: competition against divalent ligand
Sequence of SAP97-12, purified tandem PDZ domains of SAP97 (Q62696 220-408): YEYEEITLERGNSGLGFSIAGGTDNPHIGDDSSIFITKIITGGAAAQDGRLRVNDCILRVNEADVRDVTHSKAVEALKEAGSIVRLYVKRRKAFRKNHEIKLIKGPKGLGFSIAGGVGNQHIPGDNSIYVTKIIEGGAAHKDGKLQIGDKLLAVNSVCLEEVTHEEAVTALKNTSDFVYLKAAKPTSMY

[4] = target: T2, PSD-95-12, purified tandem PDZ domains of PSD-95 (rat, UniProt P31016 61-249)
T2 sequence (P31016 61-249): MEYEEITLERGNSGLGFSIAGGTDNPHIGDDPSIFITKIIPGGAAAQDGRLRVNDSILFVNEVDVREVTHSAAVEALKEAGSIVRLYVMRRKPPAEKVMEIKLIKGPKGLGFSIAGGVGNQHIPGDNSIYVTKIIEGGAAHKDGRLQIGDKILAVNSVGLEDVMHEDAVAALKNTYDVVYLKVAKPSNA

[5] = target: T2, PSD-95-12, purified tandem PDZ domains …; test: ITC
[6] = target: T2, PSD-95-12, purified tandem PDZ domains …; test: SPR

Sequence of PSD-93-12, purified tandem PDZ domains of PSD-93 (Q63622 93-282): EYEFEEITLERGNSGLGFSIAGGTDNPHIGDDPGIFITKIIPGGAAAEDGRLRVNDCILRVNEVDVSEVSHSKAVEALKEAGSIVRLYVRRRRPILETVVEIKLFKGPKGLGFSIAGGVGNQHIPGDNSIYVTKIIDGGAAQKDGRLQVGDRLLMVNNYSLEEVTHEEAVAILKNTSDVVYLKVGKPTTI

Ki [1]: 261 nM | Ki [2]: 1440 nM | Ki [3]: 900 nM | Ki [4]: 36 nM
B1: Xph20-ETWV (designed binder)
chain: MASHHHHHHHHHHENLYFQSGSGSSVSSVPTKLEVVAATPTSLLISWDAVAKNVKVGYYRITYGETGGNSPVQEFTVPGSSSTATISGLKPGVDYTITVYANGVLSKMVLPISINYRTLEGGSGGSGGSGGSGGSGGSGGSGGSGGSGGSGGSGGSGTETWV

koff [6]: 0.068 s⁻¹
B4: biotinylated Xph20 (designed binder)
chain: SSVSSVPTKLEVVAATPTSLLISWDAVAKNVKVGYYRITYGETGGNSPVQEFTVPGSSSTATISGLKPGVDYTITVYANGVLSKMVLPISINYRT
modifications: biotin on the biotin acceptor peptide

Second part, the binder before the results:

B2: Xph18, evolved ^10FN3 domain (recombinant) (designed binder)
chain: SSVSSVPTKLEVVAATPTSLLISWDAHSRMAWVNYYRITYGETGGNSPVQEFTVPGSSSTATISGLSPGVDYTITVYANGGGFRRGMAPISINYRT
Kd [5]: 820 nM

B3: Xph15, evolved ^10FN3 domain (recombinant) (designed binder)
chain: SSVSSVPTKLEVVAATPTSLLISWDAGPRNVSYYRITYGETGGNSPVQEFTVPGSSSTATISGLSPGVDYTITVYASGHVSTLMTPISINYRT
Kd [5]: 2200 nM

From paper PMC6778148 (2019)
